{"source": "patent EP2336188A1", "about": "(Sanofi-Aventis, dated 2011)", "binders": {"B1": {"name": "humanized anti-GPVI Fab VL1 with VH2 (Fab, V domains shown)", "VH": "QVQLQESGPGLVAPSQSLSITCTVSGFSLTGYGVNWVRQPPSRGLEWLGMIWGDGSTDYQSTLKSRLSISKDNSKSQVFLKMNSLTTDDTARYYCARDLPMDYWGQGTSVTVSS", "VL": "DIQMTQSPSSLSASVGGRVTITCKASQDINKYIAWYQHKPGKGPSLLIHYTSTLQPGVPSRFSGSGSGRDYSFSISNLQPEDIATYYCLQYANLLTFGGGTKLEIKR"}, "B2": {"name": "humanized anti-GPVI Fab VL1 with VH1 (Fab, V domains shown)", "VH": "B1 VH with N73T", "VL": "B1 VL"}, "B3": {"name": "humanized anti-GPVI Fab VL1 with VH3 (Fab, V domains shown)", "VH": "B1 VH with Q1E, Q5L, Q16G, S42G, R43K, T86R, Q106L", "VL": "B1 VL"}, "B4": {"name": "humanized anti-GPVI Fab VL1 with VH4 (Fab, V domains shown)", "VH": "B1 VH with G31Y", "VL": "B1 VL"}, "B5": {"name": "humanized anti-GPVI Fab VL1 with VH5 (Fab, V domains shown)", "VH": "B1 VH with Y103E", "VL": "B1 VL"}, "B6": {"name": "humanized anti-GPVI Fab VL2 with VH2 (Fab, V domains shown)", "VH": "B1 VH", "VL": "B1 VL with N93H"}, "B7": {"name": "humanized anti-GPVI Fab VL3 with VH2 (Fab, V domains shown)", "VH": "B1 VH", "VL": "B1 VL with N93L"}, "B8": {"name": "humanized anti-GPVI Fab VL3 with VH4 (Fab, V domains shown)", "VH": "B1 VH with G31Y", "VL": "B1 VL with N93L"}}, "note": "Residue numbers refer to the chain shown, from its start. Where “and” joins values, the source holds several entries; their conditions need not be identical. Identical values can stand only once."}
{"molecular_target": "T1, human GPVI on platelets (human, UniProt Q9HCN6 21-339)", "T1 sequence (looked up)": "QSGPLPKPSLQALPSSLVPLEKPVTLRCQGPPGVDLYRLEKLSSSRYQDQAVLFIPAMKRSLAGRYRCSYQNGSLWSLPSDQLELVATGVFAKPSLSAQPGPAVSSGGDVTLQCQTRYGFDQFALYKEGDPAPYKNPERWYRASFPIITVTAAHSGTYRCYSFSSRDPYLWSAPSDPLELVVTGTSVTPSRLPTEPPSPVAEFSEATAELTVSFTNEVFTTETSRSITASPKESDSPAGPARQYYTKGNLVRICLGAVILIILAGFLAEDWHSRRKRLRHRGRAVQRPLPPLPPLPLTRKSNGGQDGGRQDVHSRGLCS", "test": "cell-based or functional assay"}
{"binder": "B1", "IC50 for inhibition of collagen induced platelet aggregation (human platelet rich plasma)": "2.3 µg/mL and 2 µg/mL and 1.1 µg/mL"}
{"binder": "B2", "IC50 for inhibition of collagen induced platelet aggregation (human platelet rich plasma)": "1.5 µg/mL and 2.3 µg/mL"}
{"binder": "B3", "IC50 for inhibition of collagen induced platelet aggregation (human platelet rich plasma)": "1.5 µg/mL and 1.7 µg/mL"}
{"binder": "B4", "IC50 for inhibition of collagen induced platelet aggregation (human platelet rich plasma)": "1.6 µg/mL and 1.8 µg/mL and 1.2 µg/mL"}
{"binder": "B5", "IC50 for inhibition of collagen induced platelet aggregation (human platelet rich plasma)": "1.9 µg/mL and 2.3 µg/mL and 1.2 µg/mL"}
{"binder": "B6", "IC50 for inhibition of collagen induced platelet aggregation (human platelet rich plasma)": "1.4 µg/mL and 2.4 µg/mL and 2.3 µg/mL"}
{"binder": "B7", "IC50 for inhibition of collagen induced platelet aggregation (human platelet rich plasma)": "1.9 µg/mL and 0.9 µg/mL and 2.1 µg/mL"}
{"binder": "B8", "IC50 for inhibition of collagen induced platelet aggregation (human platelet rich plasma)": "1 µg/mL and 2.3 µg/mL and 2 µg/mL"}
